From the supplement of paper PMC11316812
± gives the standard deviation of the averaged measurements.

Tests used:
MCF7 = test: percentage of EdU-negative (G0-arrested) nuclei per well, 72 h; higher = more G0 arrest; conditions: reference: sequence is the full UniProt precursor, the tested protein was the secreted form or ectodomain
hTERT-HMEC = test: as above; conditions: reference: sequence is the full UniProt precursor, the tested protein was the secreted form or ectodomain
[1] = protein concentration 0.0225 µM
[2] = protein concentration 0.0175 µM
[3] = protein concentration 0.00714286 µM
[4] = protein concentration 0.0714286 µM
[5] = protein concentration 0.0257143 µM
[6] = protein concentration 0.257143 µM
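Further: secreted proteins added to cultured cells, EdU pulse at the end, nuclei found by Hoechst imaging, EdU status from nuclear versus surrounding ring intensity ratio, PBS as neutral control.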

Sequence: MSPHPTALLGLVLCLAQTIHTQEEDLPRPSISAEPGTVIPLGSHVTFVCRGPVGVQTFRLERDSRSTYNDTEDVSQASPSESEARFRIDSVREGNAGLYRCIYYKPPKWSEQSDYLELLVKESSGGPDSPDTEPGSSAGPTQRPSDNSHNEHAPASQGLKAEHLYILIGVSVVFLFCLLLLVLFCLHRQNQIKQGPPRSKDEEQKPQQRPDLAVDVLERTADKATVNGLPEKDRETDTSALAAGSSQEVTYAQLDHWALTQRTARAVSPQSTKPMAESITYAAVARH [Q6GTX8]
- percentage of EdU-negative (MCF7; [1]): 23.2 ± 1.6%
- percentage of EdU-negative (MCF7; protein concentration 0.225 µM): 24.29 ± 0.027%
- percentage of EdU-negative (hTERT-HMEC; [1]): 5.38 ± 0.85%
- percentage of EdU-negative (hTERT-HMEC; protein concentration 0.225 µM): 5.62 ± 0.45%

Sequence: MEYQILKMSLCLFILLFLTPGILCICPLQCICTERHRHVDCSGRNLSTLPSGLQENIIHLNLSYNHFTDLHNQLTQYTNLRTLDISNNRLESLPAHLPRSLWNMSAANNNIKLLDKSDTAYQWNLKYLDVSKNMLEKVVLIKNTLRSLEVLNLSSNKLWTVPTNMPSKLHIVDLSNNSLTQILPGTLINLTNLTHLYLHNNKFTFIPDQSFDQLFQLQEITLYNNRWSCDHKQNITYLLKWMMETKAHVIGTPCSTQISSLKEHNMYPTPSGFTSSLFTVSGMQTVDTINSLSVVTQPKVTKIPKQYRTKETTFGATLSKDTTFTSTDKAFVPYPEDTSTETINSHEAAAATLTIHLQDGMVTNTSLTSSTKSSPTPMTLSITSGMPNNFSEMPQQSTTLNLWREETTTNVKTPLPSVANAWKVNASFLLLLNVVVMLAV
- percentage of EdU-negative (MCF7; [1]): 24.1 ± 0.32%
- percentage of EdU-negative (MCF7; protein concentration 0.225 µM): 27.6 ± 1.6%
- percentage of EdU-negative (hTERT-HMEC; [1]): 5.851 ± 0.022%
- percentage of EdU-negative (hTERT-HMEC; protein concentration 0.225 µM): 10.4 ± 1.5%

Sequence: MLLRGVLLALQALQLAGALDLPAGSCAFEESTCGFDSVLASLPWILNEEGHYIYVDTSFGKQGEKAVLLSPDLQAEEWSCLRLVYQITTSSESLSDPSQLNLYMRFEDESFDRLLWSAKEPSDSWLIASLDLQNSSKKFKILIEGVLGQGNTASIALFEIKMTTGYCIECDFEENHLCGFVNRWNPNVNWFVGGGSIRNVHSILPQDHTFKSELGHYMYVDSVYVKHFQEVAQLISPLTTAPMAGCLSFYYQIQQGNDNVFSLYTRDVAGLYEEIWKADRPGNAAWNLAEVEFSAPYPMEVIFEVAFNGPKGGYVALDDISFSPVHCQNQTELLFSAVEASCNFEQDLCNFYQDKEGPGWTRVKVKPNMYRAGDHTTGLGYYLLANTKFTSQPGYIGRLYGPSLPGNLQYCLRFHYAIYGFLKMSDTLAVYIFEENHVVQEKIWSVLESPRGVWMQAEITFKKPMPTKVVFMSLCKSFWDCGLVALDDITIQLGSCSSSEKLPPPPGECTFEQDECTFTQEKRNRSSWHRRRGETPTSYTGPKGDHTTGVGYYMYIEASHMVYGQKARLLSRPLRGVSGKHCLTFFYHMYGGGTGLLSVYLKKEEDSEESLLWRRRGEQSISWLRALIEYSCERQHQIIFEAIRGVSIRSDIAIDDVKFQAGPCGEMEDTTQQSSGYSEDLNEIEY [Q7Z304]
- percentage of EdU-negative (MCF7; [2]): 28.1 ± 1.3%
- percentage of EdU-negative (MCF7; protein concentration 0.175 µM): 31.9 ± 1.8%
- percentage of EdU-negative (hTERT-HMEC; [2]): 5.68 ± 0.56%
- percentage of EdU-negative (hTERT-HMEC; protein concentration 0.175 µM): 8.11 ± 0.92%

Sequence: MGSGAGELGRAERLPVLFLFLLSLFCPALCEQIRYRIPEEMPKGSVVGNLATDLGFSVQELPTRKLRVSSEKPYFTVSAESGELLVSSRLDREEICGKKPACALEFEAVAENPLNFYHVNVEIEDINDHTPKFTQNSFELQISESAQPGTRFILEVAEDADIGLNSLQKYKLSLNPSFSLIIKEKQDGSKYPELALEKTLDREQQSYHRLVLTALDGGHPPLSGTTELRIQVTDANDNPPVFNRDVYRVSLRENVPPGTTVLQVSATDQDEGINSEITYSFYRTGQIFSLNSKSGEITTQKKLDFEETKEYSMVVEGRDGGGLVAQCTVEINIQDENDNSPEVTFHSLLEMILENAVPGTLIALIKIHDQDSGENGEVNCQLQGEVPFKIISSSKNSYKLVTDGTLDREQTPEYNVTITATDRGKPPLSSSISVILHIRDVNDNAPVFHQASYLVSVPENNPPGASIAQVCASDLDLGLNGQVSYSIMASDLEPLALASYVSMSAQSGVVFAQRAFDYEQLRTFELTLQARDQGSPALSANVSLRVLVGDRNDNAPRVLYPALGPDGSALFDMVPRAAEPGYLVTKVVAVDADSGHNAWLSYHVLQASEPGLFSLGLRTGEVRTARALGDRDAARQRLLVAVRDGGQPPLSATATLHLVFADSLQEVLPDITDRPVPSDPQAELQFYLVVALALISVLFLLAVILAVALRLRRSSSPAAWSCFQPGLCVKSGPVVPPNYSQGTLPYSYNLCVAHTGKTEFNFLKCSEQLSSGQDILCGDSSGALFPLCNSSESTSHPELQAPPNTDWRFSQAQRPGTSGSQNGDDTGTWPNNQFDTEMLQAMILASASEAADGSSTLGGGAGTMGLSARYGPQFTLQHVPDYRQNVYIPGSNATLTNAAGKRDGKAPAGGNGNKKKSGKKEKK [Q9Y5G0]
- percentage of EdU-negative (MCF7; [3]): 26.7 ± 4%
- percentage of EdU-negative (MCF7; [4]): 34.45 ± 0.24%
- percentage of EdU-negative (hTERT-HMEC; [3]): 5.16 ± 0.12%
- percentage of EdU-negative (hTERT-HMEC; [4]): 11.4 ± 4.3%

Sequence: MGRDLRPGSRVLLLLLLLLLVYLTQPGNGNEGSVTGSCYCGKRISSDSPPSVQFMNRLRKHLRAYHRCLYYTRFQLLSWSVCGGNKDPWVQELMSCLDLKECGHAYSGIVAHQKHLLPTSPPISQASEGASSDIHTPAQMLLSTLQSTQRPTLPVGSLSSDKELTRPNETTIHTAGHSLAAGPEAGENQKQPEKNAGPTARTSATVPVLCLLAIIFILTAALSYVLCKRRRGQSPQSSPDLPVHYIPVAPDSNT [Q9H2A7]
- percentage of EdU-negative (MCF7; [5]): 25.9 ± 0.7%
- percentage of EdU-negative (MCF7; [6]): 25.9 ± 2.8%
- percentage of EdU-negative (hTERT-HMEC; [5]): 4.5 ± 0.52%
- percentage of EdU-negative (hTERT-HMEC; [6]): 4.18 ± 0.16%
